Source: paper PMC3092982, “Zinc Binding to the Tyr402 and His402 Allotypes of Complement Factor H: Possible Implications for Age-Related Macular Degeneration” (Journal of Molecular Biology, 2011)

Target: the molecule itself
Assay: AUC; sedimentation velocity, SCR-6/8 at 0.3 mg/ml (14.6 μM), Hepes buffer, 20 °C, 50,000 rpm, c(s) analysis; monomer and dimer peaks seen throughout the ZnSO4 titration 0.2-600 μM

B1: recombinant FH fragment SCR-6/8 Tyr402 (domain or fragment, human)
chain: LKPCDYPDIKHGGLYHENMRRPYFPVAVGKYYSYYCDEHFETPSGSYWDHIHCTQDGWSPAVPCLRKCYFPYLENGYNQNYGRKFVQGKSIDVACHPGYALPKAQTTVTCMENGWSPTPRCIRVKTCSKSSIDIENGFISESQYTYALKEKAKYQCKLGYVTADGETSGSITCGKDGWSAQPTCI
notes: complement factor H, human, SCR domains 6 to 8, Tyr402 allotype; It says that SCR-6/8, unlike SCR-1/5 and SCR-16/20, has no His6-tag; also called SCR-6/8 Tyr402 allotype; source: E. coli BL21 (DE3), pET21ab
For B1, which “stoichiometry N” value is on record?
The value was 2.

B2: recombinant FH fragment SCR-6/8 His402 (domain or fragment, human)
chain: LKPCDYPDIKHGGLYHENMRRPYFPVAVGKYYSYYCDEHFETPSGSYWDHIHCTQDGWSPAVPCLRKCYFPYLENGYNQNHGRKFVQGKSIDVACHPGYALPKAQTTVTCMENGWSPTPRCIRVKTCSKSSIDIENGFISESQYTYALKEKAKYQCKLGYVTADGETSGSITCGKDGWSAQPTCI
notes: complement factor H, human, SCR domains 6 to 8, His402 allotype; It says that SCR-6/8, unlike SCR-1/5 and SCR-16/20, has no His6-tag; PDB 2UWN is a cited crystal structure of SCR-6/8 His402 whose limits may differ from this construct; also called SCR-6/8 His402 allotype; source: E. coli BL21 (DE3)pLysS, pET14b
With B2 as the protein, how does the “stoichiometry N” value read?
Its value is 2.
